Measured values from patent US20210238260A1 (published 2021).

B1: FIXa-D104N/K106S/I251S/R318Y/R338E/E410N (enzyme)
chain 1: YNSGKLEEFVQGNLERECMEEKCSFEEAREVFENTERTTEFWKQYVDGDQCESNPCLNGGSCKDDINSYECWCPFGFEGKNCELDVTCNIKNGRCEQFCKNSANNSVVCSCTEGYRLAENQKSCEPAVPFPCGRVSVSQTSKLTR
chain 2: VVGGEDAKPGQFPWQVVLNGKVDAFCGGSIVNEKWIVTAAHCVETGVKITVVAGEHNIEETEHTEQKRNVSRIIPHHNYNAAINKYNHDIALLELDEPLVLNSYVTPICIADKEYTNIFLKFGSGYVSGWGRVFHKGYSALVLQYLRVPLVDRATCLESTKFTIYNNMFCAGFHEGGRDSCQGDSGGPHVTEVEGTSFLTGIISWGEECAMKGKYGIYTKVSRYVNWIKNKTKLT
B2: FIXa-D104N/K106S/K228N/K247N/N249S (enzyme)
chain 1: YNSGKLEEFVQGNLERECMEEKCSFEEAREVFENTERTTEFWKQYVDGDQCESNPCLNGGSCKDDINSYECWCPFGFEGKNCELDVTCNIKNGRCEQFCKNSANNSVVCSCTEGYRLAENQKSCEPAVPFPCGRVSVSQTSKLTR
chain 2: VVGGEDAKPGQFPWQVVLNGKVDAFCGGSIVNEKWIVTAAHCVETGVNITVVAGEHNIEETEHTEQNRSVIRIIPHHNYNAAINKYNHDIALLELDEPLVLNSYVTPICIADKEYTNIFLKFGSGYVSGWGRVFHKGRSALVLQYLRVPLVDRATCLRSTKFTIYNNMFCAGFHEGGRDSCQGDSGGPHVTEVEGTSFLTGIISWGEECAMKGKYGIYTKVSRYVNWIKEKTKLT
B3: FIXa-D104N/K106S/Y155F/K228N/K247N/N249S (enzyme)
chain 1: YNSGKLEEFVQGNLERECMEEKCSFEEAREVFENTERTTEFWKQYVDGDQCESNPCLNGGSCKDDINSYECWCPFGFEGKNCELDVTCNIKNGRCEQFCKNSANNSVVCSCTEGYRLAENQKSCEPAVPFPCGRVSVSQTSKLTR
chain 2: VVGGEDAKPGQFPWQVVLNGKVDAFCGGSIVNEKWIVTAAHCVETGVNITVVAGEHNIEETEHTEQNRSVIRIIPHHNYNAAINKYNHDIALLELDEPLVLNSYVTPICIADKEYTNIFLKFGSGYVSGWGRVFHKGRSALVLQYLRVPLVDRATCLRSTKFTIYNNMFCAGFHEGGRDSCQGDSGGPHVTEVEGTSFLTGIISWGEECAMKGKYGIYTKVSRYVNWIKEKTKLT
B4: FIXa-I251S/R318Y/R338E/E410N (enzyme)
chain 1: YNSGKLEEFVQGNLERECMEEKCSFEEAREVFENTERTTEFWKQYVDGDQCESNPCLNGGSCKDDINSYECWCPFGFEGKNCELDVTCNIKNGRCEQFCKNSADNKVVCSCTEGYRLAENQKSCEPAVPFPCGRVSVSQTSKLTR
chain 2: VVGGEDAKPGQFPWQVVLNGKVDAFCGGSIVNEKWIVTAAHCVETGVKITVVAGEHNIEETEHTEQKRNVSRIIPHHNYNAAINKYNHDIALLELDEPLVLNSYVTPICIADKEYTNIFLKFGSGYVSGWGRVFHKGYSALVLQYLRVPLVDRATCLESTKFTIYNNMFCAGFHEGGRDSCQGDSGGPHVTEVEGTSFLTGIISWGEECAMKGKYGIYTKVSRYVNWIKNKTKLT
notes: also called I86S/R150Y/R170E/E240N; I251S/R318Y/E410N/R338E
B5: FIXa-K247N/N249S/R318Y/R338E/E410N (enzyme)
chain 1: YNSGKLEEFVQGNLERECMEEKCSFEEAREVFENTERTTEFWKQYVDGDQCESNPCLNGGSCKDDINSYECWCPFGFEGKNCELDVTCNIKNGRCEQFCKNSADNKVVCSCTEGYRLAENQKSCEPAVPFPCGRVSVSQTSKLTR
chain 2: VVGGEDAKPGQFPWQVVLNGKVDAFCGGSIVNEKWIVTAAHCVETGVKITVVAGEHNIEETEHTEQNRSVIRIIPHHNYNAAINKYNHDIALLELDEPLVLNSYVTPICIADKEYTNIFLKFGSGYVSGWGRVFHKGYSALVLQYLRVPLVDRATCLESTKFTIYNNMFCAGFHEGGRDSCQGDSGGPHVTEVEGTSFLTGIISWGEECAMKGKYGIYTKVSRYVNWIKNKTKLT
notes: also called K82N/N84S/R150Y/R170E/E240N
B6: FIXa-K247N/N249S/R318Y/R338E/R403E/E410N (enzyme)
chain 1: YNSGKLEEFVQGNLERECMEEKCSFEEAREVFENTERTTEFWKQYVDGDQCESNPCLNGGSCKDDINSYECWCPFGFEGKNCELDVTCNIKNGRCEQFCKNSADNKVVCSCTEGYRLAENQKSCEPAVPFPCGRVSVSQTSKLTR
chain 2: VVGGEDAKPGQFPWQVVLNGKVDAFCGGSIVNEKWIVTAAHCVETGVKITVVAGEHNIEETEHTEQNRSVIRIIPHHNYNAAINKYNHDIALLELDEPLVLNSYVTPICIADKEYTNIFLKFGSGYVSGWGRVFHKGYSALVLQYLRVPLVDRATCLESTKFTIYNNMFCAGFHEGGRDSCQGDSGGPHVTEVEGTSFLTGIISWGEECAMKGKYGIYTKVSEYVNWIKNKTKLT
notes: also called K82N/N84S/R150Y/R170E/R233E/E240N
B7: FIXa-R318Y/R338E/E410N/T412V (enzyme)
chain 1: YNSGKLEEFVQGNLERECMEEKCSFEEAREVFENTERTTEFWKQYVDGDQCESNPCLNGGSCKDDINSYECWCPFGFEGKNCELDVTCNIKNGRCEQFCKNSADNKVVCSCTEGYRLAENQKSCEPAVPFPCGRVSVSQTSKLTR
chain 2: VVGGEDAKPGQFPWQVVLNGKVDAFCGGSIVNEKWIVTAAHCVETGVKITVVAGEHNIEETEHTEQKRNVIRIIPHHNYNAAINKYNHDIALLELDEPLVLNSYVTPICIADKEYTNIFLKFGSGYVSGWGRVFHKGYSALVLQYLRVPLVDRATCLESTKFTIYNNMFCAGFHEGGRDSCQGDSGGPHVTEVEGTSFLTGIISWGEECAMKGKYGIYTKVSRYVNWIKNKVKLT
notes: also called R150Y/R170E/E240N/T242V
B8: FIXa-R318Y/R338E/E410S (enzyme)
chain 1: YNSGKLEEFVQGNLERECMEEKCSFEEAREVFENTERTTEFWKQYVDGDQCESNPCLNGGSCKDDINSYECWCPFGFEGKNCELDVTCNIKNGRCEQFCKNSADNKVVCSCTEGYRLAENQKSCEPAVPFPCGRVSVSQTSKLTR
chain 2: VVGGEDAKPGQFPWQVVLNGKVDAFCGGSIVNEKWIVTAAHCVETGVKITVVAGEHNIEETEHTEQKRNVIRIIPHHNYNAAINKYNHDIALLELDEPLVLNSYVTPICIADKEYTNIFLKFGSGYVSGWGRVFHKGYSALVLQYLRVPLVDRATCLESTKFTIYNNMFCAGFHEGGRDSCQGDSGGPHVTEVEGTSFLTGIISWGEECAMKGKYGIYTKVSRYVNWIKSKTKLT
notes: also called R150Y/R170E/E240S
B9: FIXa-R318Y/R338E/T412A (enzyme)
chain 1: YNSGKLEEFVQGNLERECMEEKCSFEEAREVFENTERTTEFWKQYVDGDQCESNPCLNGGSCKDDINSYECWCPFGFEGKNCELDVTCNIKNGRCEQFCKNSADNKVVCSCTEGYRLAENQKSCEPAVPFPCGRVSVSQTSKLTR
chain 2: VVGGEDAKPGQFPWQVVLNGKVDAFCGGSIVNEKWIVTAAHCVETGVKITVVAGEHNIEETEHTEQKRNVIRIIPHHNYNAAINKYNHDIALLELDEPLVLNSYVTPICIADKEYTNIFLKFGSGYVSGWGRVFHKGYSALVLQYLRVPLVDRATCLESTKFTIYNNMFCAGFHEGGRDSCQGDSGGPHVTEVEGTSFLTGIISWGEECAMKGKYGIYTKVSRYVNWIKEKAKLT
notes: also called R150Y/R170E/T242A
B10: FIXa-Y155F/K247N/N249S/R318Y/R338E/E410N (enzyme)
chain 1: YNSGKLEEFVQGNLERECMEEKCSFEEAREVFENTERTTEFWKQYVDGDQCESNPCLNGGSCKDDINSYECWCPFGFEGKNCELDVTCNIKNGRCEQFCKNSADNKVVCSCTEGYRLAENQKSCEPAVPFPCGRVSVSQTSKLTR
chain 2: VVGGEDAKPGQFPWQVVLNGKVDAFCGGSIVNEKWIVTAAHCVETGVKITVVAGEHNIEETEHTEQNRSVIRIIPHHNYNAAINKYNHDIALLELDEPLVLNSYVTPICIADKEYTNIFLKFGSGYVSGWGRVFHKGYSALVLQYLRVPLVDRATCLESTKFTIYNNMFCAGFHEGGRDSCQGDSGGPHVTEVEGTSFLTGIISWGEECAMKGKYGIYTKVSRYVNWIKNKTKLT
B11: FIXa-Y155F/N260S/R318Y/R338E/R403E/E410N (enzyme)
chain 1: YNSGKLEEFVQGNLERECMEEKCSFEEAREVFENTERTTEFWKQYVDGDQCESNPCLNGGSCKDDINSYECWCPFGFEGKNCELDVTCNIKNGRCEQFCKNSADNKVVCSCTEGYRLAENQKSCEPAVPFPCGRVSVSQTSKLTR
chain 2: VVGGEDAKPGQFPWQVVLNGKVDAFCGGSIVNEKWIVTAAHCVETGVKITVVAGEHNIEETEHTEQKRNVIRIIPHHNYSAAINKYNHDIALLELDEPLVLNSYVTPICIADKEYTNIFLKFGSGYVSGWGRVFHKGYSALVLQYLRVPLVDRATCLESTKFTIYNNMFCAGFHEGGRDSCQGDSGGPHVTEVEGTSFLTGIISWGEECAMKGKYGIYTKVSEYVNWIKNKTKLT
B12: FIXa-Y259F/K265T/Y345T (enzyme)
chain 1: YNSGKLEEFVQGNLERECMEEKCSFEEAREVFENTERTTEFWKQYVDGDQCESNPCLNGGSCKDDINSYECWCPFGFEGKNCELDVTCNIKNGRCEQFCKNSADNKVVCSCTEGYRLAENQKSCEPAVPFPCGRVSVSQTSKLTR
chain 2: VVGGEDAKPGQFPWQVVLNGKVDAFCGGSIVNEKWIVTAAHCVETGVKITVVAGEHNIEETEHTEQKRNVIRIIPHHNFNAAINTYNHDIALLELDEPLVLNSYVTPICIADKEYTNIFLKFGSGYVSGWGRVFHKGRSALVLQYLRVPLVDRATCLRSTKFTITNNMFCAGFHEGGRDSCQGDSGGPHVTEVEGTSFLTGIISWGEECAMKGKYGIYTKVSRYVNWIKEKTKLT
notes: also called Y94F/K98T/Y177T
B13: FIXa-D104N/K106S/R318Y/R338E/E410N (enzyme)
chain 1: YNSGKLEEFVQGNLERECMEEKCSFEEAREVFENTERTTEFWKQYVDGDQCESNPCLNGGSCKDDINSYECWCPFGFEGKNCELDVTCNIKNGRCEQFCKNSANNSVVCSCTEGYRLAENQKSCEPAVPFPCGRVSVSQTSKLTR
chain 2: VVGGEDAKPGQFPWQVVLNGKVDAFCGGSIVNEKWIVTAAHCVETGVKITVVAGEHNIEETEHTEQKRNVIRIIPHHNYNAAINKYNHDIALLELDEPLVLNSYVTPICIADKEYTNIFLKFGSGYVSGWGRVFHKGYSALVLQYLRVPLVDRATCLESTKFTIYNNMFCAGFHEGGRDSCQGDSGGPHVTEVEGTSFLTGIISWGEECAMKGKYGIYTKVSRYVNWIKNKTKLT
notes: also called D104N/K106S/R318Y/E410N/R338E
B14: FIXa-D203N/F205T/E410N (enzyme)
chain 1: YNSGKLEEFVQGNLERECMEEKCSFEEAREVFENTERTTEFWKQYVDGDQCESNPCLNGGSCKDDINSYECWCPFGFEGKNCELDVTCNIKNGRCEQFCKNSADNKVVCSCTEGYRLAENQKSCEPAVPFPCGRVSVSQTSKLTR
chain 2: VVGGEDAKPGQFPWQVVLNGKVNATCGGSIVNEKWIVTAAHCVETGVKITVVAGEHNIEETEHTEQKRNVIRIIPHHNYNAAINKYNHDIALLELDEPLVLNSYVTPICIADKEYTNIFLKFGSGYVSGWGRVFHKGRSALVLQYLRVPLVDRATCLRSTKFTIYNNMFCAGFHEGGRDSCQGDSGGPHVTEVEGTSFLTGIISWGEECAMKGKYGIYTKVSRYVNWIKNKTKLT
notes: also called D39N/F41T/E240N (chymotrypsin numbering)

Molecular target: T1, plasma purified human AT-III (antithrombin III) (human, UniProt P01008 33-464)
T1 construct: also called AT-III/UFH (in complex with unfractionated heparin)
Assay: K0.5: AT-III/UFH titrated on FIXa, residual activity on fluorogenic substrate

Binder | IC50
B1 | 8.98 µM
B2 | 0.041 µM
B3 | 0.032 µM
B4 | 5.86 µM
B5 | 1.51 µM
B6 | 8.08 µM
B7 | 4.87 µM
B8 | 5.4 µM
B9 | 7.66 µM
B10 | 3.88 µM
B11 | 9.7 µM
B12 | 0.006 µM

Molecular target: T2, antithrombin III (plasma purified human AT-III), used as the AT-III/unfractionated heparin complex (human, UniProt P01008 33-464)
T2 construct: also called AT-III/UFH
Assay: K0.5: AT-III/UFH titrated against FIXa, 10 s, residual cleavage of Mesyl-D-CHG-Gly-Arg-AMC

Binder | IC50
B13 | 6.33 µM
B14 | 0.377 µM
